Reference: patent publication US20210388087A1 (Chugai, published 2021)

T1: Human CD3eg linker (human)
T1 construct: Single-chain construct; also called recombinant human CD3
T1 chain: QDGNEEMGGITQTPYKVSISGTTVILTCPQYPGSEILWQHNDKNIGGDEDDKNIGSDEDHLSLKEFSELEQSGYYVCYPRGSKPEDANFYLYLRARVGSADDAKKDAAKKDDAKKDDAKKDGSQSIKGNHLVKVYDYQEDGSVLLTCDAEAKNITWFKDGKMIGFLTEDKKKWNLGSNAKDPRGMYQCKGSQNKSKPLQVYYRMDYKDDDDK


Biological target: T1, Human CD3eg linker
Assay: SPR; fold vs parent H183/L072

Binder | fold change of affinity
H183/L072 VL R29K (antibody, name in Kabat numbering, V domains shown) VH: QVQLVESGGGLVQPGRSLRLSCAASGFTFSNAWMHWVRQAPGKGLEWVAQIKDKGNAYAAYYAPSVKGRFTISRDDSKNSIYLQMNSLKTEDTAVYYCHYVHYASASTVLPAFGVDAWGQGTTVTVSS VL: DIVMTQSPLSLPVTPGEPASISCQASQELVHMNKNTYLHWYQQKPGQAPRLLIYKVSNRFPGVPDRFSGSGSGTDFTLKISRVEAEDVGVYYCAQGTSVPFTFGQGTKLEIK | 1.1 fold
H183/L072 VL R29V (antibody, name in Kabat numbering, V domains shown) VH: QVQLVESGGGLVQPGRSLRLSCAASGFTFSNAWMHWVRQAPGKGLEWVAQIKDKGNAYAAYYAPSVKGRFTISRDDSKNSIYLQMNSLKTEDTAVYYCHYVHYASASTVLPAFGVDAWGQGTTVTVSS VL: DIVMTQSPLSLPVTPGEPASISCQASQELVHMNVNTYLHWYQQKPGQAPRLLIYKVSNRFPGVPDRFSGSGSGTDFTLKISRVEAEDVGVYYCAQGTSVPFTFGQGTKLEIK | 0.3 fold
H183/L072 VL R29S (antibody, name in Kabat numbering, V domains shown) VH: QVQLVESGGGLVQPGRSLRLSCAASGFTFSNAWMHWVRQAPGKGLEWVAQIKDKGNAYAAYYAPSVKGRFTISRDDSKNSIYLQMNSLKTEDTAVYYCHYVHYASASTVLPAFGVDAWGQGTTVTVSS VL: DIVMTQSPLSLPVTPGEPASISCQASQELVHMNSNTYLHWYQQKPGQAPRLLIYKVSNRFPGVPDRFSGSGSGTDFTLKISRVEAEDVGVYYCAQGTSVPFTFGQGTKLEIK | 0.8 fold
H183/L072 VL R54D (antibody, name in Kabat numbering, V domains shown) VH: QVQLVESGGGLVQPGRSLRLSCAASGFTFSNAWMHWVRQAPGKGLEWVAQIKDKGNAYAAYYAPSVKGRFTISRDDSKNSIYLQMNSLKTEDTAVYYCHYVHYASASTVLPAFGVDAWGQGTTVTVSS VL: DIVMTQSPLSLPVTPGEPASISCQASQELVHMNRNTYLHWYQQKPGQAPRLLIYKVSNDFPGVPDRFSGSGSGTDFTLKISRVEAEDVGVYYCAQGTSVPFTFGQGTKLEIK | 0.5 fold
H183/L072 VL R29W (antibody, name in Kabat numbering, V domains shown) VH: QVQLVESGGGLVQPGRSLRLSCAASGFTFSNAWMHWVRQAPGKGLEWVAQIKDKGNAYAAYYAPSVKGRFTISRDDSKNSIYLQMNSLKTEDTAVYYCHYVHYASASTVLPAFGVDAWGQGTTVTVSS VL: DIVMTQSPLSLPVTPGEPASISCQASQELVHMNWNTYLHWYQQKPGQAPRLLIYKVSNRFPGVPDRFSGSGSGTDFTLKISRVEAEDVGVYYCAQGTSVPFTFGQGTKLEIK | 0.5 fold
H183/L072 VL R54F (antibody, name in Kabat numbering, V domains shown) VH: QVQLVESGGGLVQPGRSLRLSCAASGFTFSNAWMHWVRQAPGKGLEWVAQIKDKGNAYAAYYAPSVKGRFTISRDDSKNSIYLQMNSLKTEDTAVYYCHYVHYASASTVLPAFGVDAWGQGTTVTVSS VL: DIVMTQSPLSLPVTPGEPASISCQASQELVHMNRNTYLHWYQQKPGQAPRLLIYKVSNFFPGVPDRFSGSGSGTDFTLKISRVEAEDVGVYYCAQGTSVPFTFGQGTKLEIK | 1.5 fold
H183/L072 VL R54L (antibody, name in Kabat numbering, V domains shown) VH: QVQLVESGGGLVQPGRSLRLSCAASGFTFSNAWMHWVRQAPGKGLEWVAQIKDKGNAYAAYYAPSVKGRFTISRDDSKNSIYLQMNSLKTEDTAVYYCHYVHYASASTVLPAFGVDAWGQGTTVTVSS VL: DIVMTQSPLSLPVTPGEPASISCQASQELVHMNRNTYLHWYQQKPGQAPRLLIYKVSNLFPGVPDRFSGSGSGTDFTLKISRVEAEDVGVYYCAQGTSVPFTFGQGTKLEIK | 1.3 fold
H183/L072 VL R29L (antibody, name in Kabat numbering, V domains shown) VH: QVQLVESGGGLVQPGRSLRLSCAASGFTFSNAWMHWVRQAPGKGLEWVAQIKDKGNAYAAYYAPSVKGRFTISRDDSKNSIYLQMNSLKTEDTAVYYCHYVHYASASTVLPAFGVDAWGQGTTVTVSS VL: DIVMTQSPLSLPVTPGEPASISCQASQELVHMNLNTYLHWYQQKPGQAPRLLIYKVSNRFPGVPDRFSGSGSGTDFTLKISRVEAEDVGVYYCAQGTSVPFTFGQGTKLEIK | 0.8 fold
H183/L072 VL R54G (antibody, name in Kabat numbering, V domains shown) VH: QVQLVESGGGLVQPGRSLRLSCAASGFTFSNAWMHWVRQAPGKGLEWVAQIKDKGNAYAAYYAPSVKGRFTISRDDSKNSIYLQMNSLKTEDTAVYYCHYVHYASASTVLPAFGVDAWGQGTTVTVSS VL: DIVMTQSPLSLPVTPGEPASISCQASQELVHMNRNTYLHWYQQKPGQAPRLLIYKVSNGFPGVPDRFSGSGSGTDFTLKISRVEAEDVGVYYCAQGTSVPFTFGQGTKLEIK | 1.1 fold
H183/L072 VL R29T (antibody, name in Kabat numbering, V domains shown) VH: QVQLVESGGGLVQPGRSLRLSCAASGFTFSNAWMHWVRQAPGKGLEWVAQIKDKGNAYAAYYAPSVKGRFTISRDDSKNSIYLQMNSLKTEDTAVYYCHYVHYASASTVLPAFGVDAWGQGTTVTVSS VL: DIVMTQSPLSLPVTPGEPASISCQASQELVHMNTNTYLHWYQQKPGQAPRLLIYKVSNRFPGVPDRFSGSGSGTDFTLKISRVEAEDVGVYYCAQGTSVPFTFGQGTKLEIK | 0.8 fold
H183/L072 VL R54M (antibody, name in Kabat numbering, V domains shown) VH: QVQLVESGGGLVQPGRSLRLSCAASGFTFSNAWMHWVRQAPGKGLEWVAQIKDKGNAYAAYYAPSVKGRFTISRDDSKNSIYLQMNSLKTEDTAVYYCHYVHYASASTVLPAFGVDAWGQGTTVTVSS VL: DIVMTQSPLSLPVTPGEPASISCQASQELVHMNRNTYLHWYQQKPGQAPRLLIYKVSNMFPGVPDRFSGSGSGTDFTLKISRVEAEDVGVYYCAQGTSVPFTFGQGTKLEIK | 1.7 fold
H183/L072 VL R54A (antibody, name in Kabat numbering, V domains shown) VH: QVQLVESGGGLVQPGRSLRLSCAASGFTFSNAWMHWVRQAPGKGLEWVAQIKDKGNAYAAYYAPSVKGRFTISRDDSKNSIYLQMNSLKTEDTAVYYCHYVHYASASTVLPAFGVDAWGQGTTVTVSS VL: DIVMTQSPLSLPVTPGEPASISCQASQELVHMNRNTYLHWYQQKPGQAPRLLIYKVSNAFPGVPDRFSGSGSGTDFTLKISRVEAEDVGVYYCAQGTSVPFTFGQGTKLEIK | 1 fold
H183/L072 VL R29N (antibody, name in Kabat numbering, V domains shown) VH: QVQLVESGGGLVQPGRSLRLSCAASGFTFSNAWMHWVRQAPGKGLEWVAQIKDKGNAYAAYYAPSVKGRFTISRDDSKNSIYLQMNSLKTEDTAVYYCHYVHYASASTVLPAFGVDAWGQGTTVTVSS VL: DIVMTQSPLSLPVTPGEPASISCQASQELVHMNNNTYLHWYQQKPGQAPRLLIYKVSNRFPGVPDRFSGSGSGTDFTLKISRVEAEDVGVYYCAQGTSVPFTFGQGTKLEIK | 0.3 fold
H183/L072 VL R54E (antibody, name in Kabat numbering, V domains shown) VH: QVQLVESGGGLVQPGRSLRLSCAASGFTFSNAWMHWVRQAPGKGLEWVAQIKDKGNAYAAYYAPSVKGRFTISRDDSKNSIYLQMNSLKTEDTAVYYCHYVHYASASTVLPAFGVDAWGQGTTVTVSS VL: DIVMTQSPLSLPVTPGEPASISCQASQELVHMNRNTYLHWYQQKPGQAPRLLIYKVSNEFPGVPDRFSGSGSGTDFTLKISRVEAEDVGVYYCAQGTSVPFTFGQGTKLEIK | 0.8 fold
H183/L072 VL R29M (antibody, name in Kabat numbering, V domains shown) VH: QVQLVESGGGLVQPGRSLRLSCAASGFTFSNAWMHWVRQAPGKGLEWVAQIKDKGNAYAAYYAPSVKGRFTISRDDSKNSIYLQMNSLKTEDTAVYYCHYVHYASASTVLPAFGVDAWGQGTTVTVSS VL: DIVMTQSPLSLPVTPGEPASISCQASQELVHMNMNTYLHWYQQKPGQAPRLLIYKVSNRFPGVPDRFSGSGSGTDFTLKISRVEAEDVGVYYCAQGTSVPFTFGQGTKLEIK | 0.7 fold
H183/L072 VL R54K (antibody, name in Kabat numbering, V domains shown) VH: QVQLVESGGGLVQPGRSLRLSCAASGFTFSNAWMHWVRQAPGKGLEWVAQIKDKGNAYAAYYAPSVKGRFTISRDDSKNSIYLQMNSLKTEDTAVYYCHYVHYASASTVLPAFGVDAWGQGTTVTVSS VL: DIVMTQSPLSLPVTPGEPASISCQASQELVHMNRNTYLHWYQQKPGQAPRLLIYKVSNKFPGVPDRFSGSGSGTDFTLKISRVEAEDVGVYYCAQGTSVPFTFGQGTKLEIK | 1.7 fold
H183/L072 VL R29Y (antibody, name in Kabat numbering, V domains shown) VH: QVQLVESGGGLVQPGRSLRLSCAASGFTFSNAWMHWVRQAPGKGLEWVAQIKDKGNAYAAYYAPSVKGRFTISRDDSKNSIYLQMNSLKTEDTAVYYCHYVHYASASTVLPAFGVDAWGQGTTVTVSS VL: DIVMTQSPLSLPVTPGEPASISCQASQELVHMNYNTYLHWYQQKPGQAPRLLIYKVSNRFPGVPDRFSGSGSGTDFTLKISRVEAEDVGVYYCAQGTSVPFTFGQGTKLEIK | 0.5 fold
H183/L072 VL R54H (antibody, name in Kabat numbering, V domains shown) VH: QVQLVESGGGLVQPGRSLRLSCAASGFTFSNAWMHWVRQAPGKGLEWVAQIKDKGNAYAAYYAPSVKGRFTISRDDSKNSIYLQMNSLKTEDTAVYYCHYVHYASASTVLPAFGVDAWGQGTTVTVSS VL: DIVMTQSPLSLPVTPGEPASISCQASQELVHMNRNTYLHWYQQKPGQAPRLLIYKVSNHFPGVPDRFSGSGSGTDFTLKISRVEAEDVGVYYCAQGTSVPFTFGQGTKLEIK | 1.9 fold
H183/L072 VL R54I (antibody, name in Kabat numbering, V domains shown) VH: QVQLVESGGGLVQPGRSLRLSCAASGFTFSNAWMHWVRQAPGKGLEWVAQIKDKGNAYAAYYAPSVKGRFTISRDDSKNSIYLQMNSLKTEDTAVYYCHYVHYASASTVLPAFGVDAWGQGTTVTVSS VL: DIVMTQSPLSLPVTPGEPASISCQASQELVHMNRNTYLHWYQQKPGQAPRLLIYKVSNIFPGVPDRFSGSGSGTDFTLKISRVEAEDVGVYYCAQGTSVPFTFGQGTKLEIK | 1.3 fold
H183/L072 VL R29Q (antibody, name in Kabat numbering, V domains shown) VH: QVQLVESGGGLVQPGRSLRLSCAASGFTFSNAWMHWVRQAPGKGLEWVAQIKDKGNAYAAYYAPSVKGRFTISRDDSKNSIYLQMNSLKTEDTAVYYCHYVHYASASTVLPAFGVDAWGQGTTVTVSS VL: DIVMTQSPLSLPVTPGEPASISCQASQELVHMNQNTYLHWYQQKPGQAPRLLIYKVSNRFPGVPDRFSGSGSGTDFTLKISRVEAEDVGVYYCAQGTSVPFTFGQGTKLEIK | 0.7 fold
